Reference: publication doi:10.1101/2025.11.12.687969 (bioRxiv, 2025)

Molecular target: EGFP–TDP-43 (human, UniProt Q13148 1-414)
Test: co-IP

B1: Myc–TDP-43 ΔNLS (natural protein, human, UniProt Q13148-1 1-414, looked up)
chain: MSEYIRVTEDENDEPIEIPSEDDGTVLLSTVTAQFPGACGLRYRNPVSQCMRGVRLVEGILHAPDAGWGNLVYVVNYPKDNAAAMDETDASSAVKVKRAVQKTSDLIVLGLPWKTTEQDLKEYFSTFGEVLMVQVKKDLKTGHSKGFGFVRFTEYETQVKVMSQRHMIDGRWCDCKLPNSKQSQDEPLRSRKVFVGRCTEDMTEDELREFFSQYGDVMDVFIPKPFRAFAFVTFADDQIAQSLCGEDLIIKGISVHISNAEPKHNSNRQLERSGRFGGNPGGFGNQGGFGNSRGGGAGLGNNQGSNMGGGMNFGAFSINPAMMAAAQAALQSSWGMMGMLASQQNQSGPSGNNQNQGNMQREPNQAFGSGNNSYSGSNSGAAIGWGSASNAGSGSGFNGGFGSSMDSKSSGWGM
B1 was tested, and the “reduction of the association index relative to WT (log2)” value was 0.77 log2 units.
